Experimental findings from FireProtDB (doi:10.1016/0168-1656(93)90129-b) are described below.

One may read the Tm as the temperature at which the thermal transition is half complete.

First the molecules themselves.
B1: Ribonuclease HI, P0A7Y4 (parent)
chain: MLKQVEIFTDGSCLGNPGPGGYGAILRYRGREKTFSAGYTRTTNNRMELMAAIVALEALKEHCEVILSTDSQYVRQGITQWIHNWKKRGWKTADKKPVKNVDLWQRLDAALGQHQIKWEWVKGHAGHPENERCDELARAAAMNPTLEDTGYQVEV

In the data set the parent is B1. As to conditions: Escherichia coli (strain K12), CD, reversible: yes, structure 2RN2, whole UniProt chain shown; for Tm / change of melting temperature, mutant - wild type (higher = more stable): Thermal; for ddG of mutation (higher = less stable) / denaturant midpoint (higher = more stable) / unfolding free energy: 25 °C, GdnHCl.

Regarding H114A, for the setting “pH 7.8, Sodium phosphate 20 mM”, the Tm was 42.5 °C and the “change of melting temperature, mutant - wild type (higher = more stable)” value (from here on “change of melting temperature, mutant”) is -7.7 °C.
H127A: where the note is “pH 3, glycine-HCl 10 mM”, the Tm is 50.3 °C and the “change of melting temperature, mutant” value is 0.9 °C. In addition, under “pH 5.5, Sodium acetate 20 mM”, the “ddG of mutation (higher = less stable)” value came out at 0.24 kcal/mol, the “denaturant midpoint (higher = more stable)” value (“denaturant midpoint” below) was found to be 1.74 M and the unfolding free energy turned out to be 8.97 kcal/mol. For the setting “pH 8.2, Tris-HCl 20 mM”, the “ddG of mutation (higher = less stable)” value turned out to be 0.31 kcal/mol, the “denaturant midpoint” value was 1.59 M and the unfolding free energy is 8.18 kcal/mol.
Take H62A H83A H124A H127A: under “pH 3, glycine-HCl 10 mM”, the Tm stood at 54.9 °C and the “change of melting temperature, mutant” value was found to be 5.5 °C. For the setting “pH 7.8, Sodium phosphate 20 mM”, the Tm was 51.7 °C and the “change of melting temperature, mutant” value came out at 1.5 °C.
Take H124A: for the setting “pH 3, glycine-HCl 10 mM”, the Tm turned out to be 51.1 °C and the “change of melting temperature, mutant” value was 1.7 °C. Also, for the setting “pH 5.5, Sodium acetate 20 mM”, the “ddG of mutation (higher = less stable)” value is -0.17 kcal/mol, the “denaturant midpoint” value was 1.82 M, the unfolding free energy worked out at 9.38 kcal/mol and the Tm turned out to be 52.7 °C. The “change of melting temperature, mutant” value (pH 5.5, Sodium acetate 20 mM) stood at 0 °C. Further, for the setting “pH 7.8, Sodium phosphate 20 mM”, the Tm is 50.3 °C and the “change of melting temperature, mutant” value came out at 0.1 °C. Further, where the note is “pH 8.2, Tris-HCl 20 mM”, the “ddG of mutation (higher = less stable)” value is -0.05 kcal/mol, the “denaturant midpoint” value was 1.66 M and the unfolding free energy amounted to 8.54 kcal/mol.
For the variant H124A H127A, the Tm was found to be 53 °C (pH 3, glycine-HCl 10 mM); 52.1 °C (pH 5.5, Sodium acetate 20 mM); 50.1 °C (pH 7.8, Sodium phosphate 20 mM). Also, the “change of melting temperature, mutant” value runs as follows: (pH 3, glycine-HCl 10 mM) 3.6 °C; (pH 5.5, Sodium acetate 20 mM) -0.6 °C; (pH 7.8, Sodium phosphate 20 mM) -0.1 °C.
Regarding H62A, where the note is “pH 3, glycine-HCl 10 mM”, the Tm is 50.7 °C and the “change of melting temperature, mutant” value was 1.3 °C. In addition, under “pH 5.5, Sodium acetate 20 mM”, the “ddG of mutation (higher = less stable)” value was -0.36 kcal/mol, the “denaturant midpoint” value amounted to 1.86 M and the unfolding free energy is 9.57 kcal/mol. Where the note is “pH 7.8, Sodium phosphate 20 mM”, the midpoint of thermal melting (Tm) was 51.2 °C and the “change of melting temperature, mutant” value was determined as 1 °C. Under “pH 8.2, Tris-HCl 20 mM”, the “ddG of mutation (higher = less stable)” value was -0.58 kcal/mol, the “denaturant midpoint” value was found to be 1.76 M and the unfolding free energy stood at 9.07 kcal/mol.
Regarding H83A, under “pH 3, glycine-HCl 10 mM”, the Tm was 51.5 °C and the “change of melting temperature, mutant” value is 2.1 °C. For the setting “pH 5.5, Sodium acetate 20 mM”, the “ddG of mutation (higher = less stable)” value was -0.22 kcal/mol, the “denaturant midpoint” value is 1.83 M, the unfolding free energy was 9.43 kcal/mol and the Tm turned out to be 52.8 °C. For the same variant, the “change of melting temperature, mutant” value (pH 5.5, Sodium acetate 20 mM) was 0.1 °C. Where the note is “pH 7.8, Sodium phosphate 20 mM”, the Tm came out at 50 °C and the “change of melting temperature, mutant” value was -0.2 °C. Where the note is “pH 8.2, Tris-HCl 20 mM”, the “ddG of mutation (higher = less stable)” value was found to be 0.09 kcal/mol, the “denaturant midpoint” value turned out to be 1.63 M and the unfolding free energy was 8.4 kcal/mol.
Turning to H62A H83A, under “pH 7.8, Sodium phosphate 20 mM”, the Tm stood at 51.5 °C and the “change of melting temperature, mutant” value turned out to be 1.3 °C.
